# Article PMC11883000 (2025)
# Like-named read-outs stand apart in the source and are kept apart here. Ends that are not written are not given here. Me2 = dimethylation (dimethyl-lysine); Me3 = trimethyl on lysine side chain
# Columns and labels:
# [1] = biological target: T1, ASH1L plant homeodomain (PHD) finger, wild type (aa 2579-2629) (human, UniProt Q9NR48 2579-2629)
# T1 chain: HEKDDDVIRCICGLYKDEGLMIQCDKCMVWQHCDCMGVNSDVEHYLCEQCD
# ASH1L PHD finger D2595A = ASH1L PHD finger D2595A (human, UniProt Q9NR48 2579-2629, Substitution of D2595 with alanine)
# ASH1L PHD finger Q2601K = ASH1L PHD finger Q2601K (human, UniProt Q9NR48 2579-2629, Q2601K)
# ASH1L PHD finger S2618A = ASH1L PHD finger S2618A (human, UniProt Q9NR48 2579-2629, S2618A)
# ASH1L PHD finger D2603A = ASH1L PHD finger D2603A (human, UniProt Q9NR48 2579-2629, D2603A)
# ASH1L PHD finger Y2693K = biological target: T2, ASH1L PHD finger Y2693K (human, UniProt Q9NR48 2579-2629)
# T2 chain: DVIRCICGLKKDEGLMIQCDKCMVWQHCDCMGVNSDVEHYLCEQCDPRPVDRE
# ASH1L PHD finger D2584A = ASH1L PHD finger D2584A (human, UniProt Q9NR48 2579-2629, Substitution of D2584 with alanine)
# [2] = biological target: T1, ASH1L plant homeodomain (PHD) finger, …; assay: MST
# [3] = biological target: T3, ASH1L PHD finger-BAH domain (human, UniProt Q9NR48 2579-2834)
# T3 chain: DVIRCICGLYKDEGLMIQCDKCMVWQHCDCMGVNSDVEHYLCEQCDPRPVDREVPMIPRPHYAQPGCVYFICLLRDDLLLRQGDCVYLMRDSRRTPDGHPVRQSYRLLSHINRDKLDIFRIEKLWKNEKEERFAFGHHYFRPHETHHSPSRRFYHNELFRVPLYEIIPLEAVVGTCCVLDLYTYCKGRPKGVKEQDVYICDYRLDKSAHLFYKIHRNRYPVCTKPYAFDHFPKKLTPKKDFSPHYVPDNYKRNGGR
Binder,Kd [1],Kd (ASH1L PHD finger D2595A),Kd (ASH1L PHD finger Q2601K),Kd (ASH1L PHD finger S2618A),Kd (ASH1L PHD finger D2603A),Kd (ASH1L PHD finger Y2693K),Kd (ASH1L PHD finger D2584A),Kd [2],Kd [3]
ARTK(Me3)QTARKSTG [histone H3K4me3 peptide (aa 1-12 of H3)],1600 nM,6700 nM,1000 nM,5900 nM,2000 nM,1800 nM,4600 nM,1100 nM,1000 nM
ARTK(Me2)QTARKSTG [histone H3K4me2 peptide (aa 1-12 of H3)],1000 nM,–,–,–,–,–,–,–,–
